In US20210139542A1:

Assays:
HEWL-Full2 (hen) [1] = biological target: HEWL-Full2 (hen) (UniProt P00698); assay: BLI, mAb on AHC biosensor, 100 nM antigen
HEWL-Hel-108 (hen) [2] = biological target: HEWL-Hel-108 (hen) (UniProt P00698); assay: BLI, mAb on AHC biosensor, 100 nM antigen
HEWL-Full8 (hen) [3] = biological target: HEWL-Full8 (hen) (UniProt P00698); assay: BLI, mAb on AHC biosensor, 100 nM antigen, footnote e bounds the value
HEWL-Full2 (hen) [4] = biological target: HEWL-Full2 (hen) (UniProt P00698); assay: BLI, mAb on AHC biosensor, 100 nM antigen, footnote d bounds the value
HEWL-Full4 (hen) [5] = biological target: HEWL-Full4 (hen) (UniProt P00698); assay: as above
HEWL-Full2 (hen) [6] = biological target: HEWL-Full2 (hen) (UniProt P00698); assay: BLI, mAb on AHC biosensor, 100 nM antigen, footnote c bounds the value
HEWL-Full4 (hen) [7] = biological target: HEWL-Full4 (hen) (UniProt P00698); assay: as above
HEWL-Hel-108 (hen) [8] = biological target: HEWL-Hel-108 (hen) (UniProt P00698); assay: as above
HEWL-Full8 (hen) [9] = biological target: HEWL-Full8 (hen) (UniProt P00698); assay: as above

## HyHEL-10 (antibody)
HEWL-Full2 (hen) [1]
  Kd: 150 nM
HEWL-Hel-108 (hen) [2]
  Kd: 0.092 nM

## D1.3 (antibody)
HEWL-Hel-108 (hen) [2]
  Kd: 5.7 nM
HEWL-Full8 (hen) [3]
  Kd: 12 nM
HEWL-Full2 (hen) [4]
  Kd: 2.9 nM
HEWL-Full4 (hen) [5]
  Kd: 7.9 nM

## HyHEL-5 (antibody)
HEWL-Full2 (hen) [6]
  Kd: 0.14 nM
HEWL-Full4 (hen) [7]
  Kd: 0.15 nM
HEWL-Hel-108 (hen) [8]
  Kd: 0.14 nM
HEWL-Full8 (hen) [9]
  Kd: 0.18 nM
